Assay results as given in paper PMC8894380, “A multi-factor trafficking site on the spliceosome remodeling enzyme BRR2 recruits C9ORF78 to regulate alternative splicing” (Nature Communications, 2022).

T1: BRR2 C-terminal cassette (BRR2^CC, residues 1282-2136) (human, UniProt O75643 1282-2136)
T1 construct: BRR2 (SNRNP200), human, C-terminal helicase cassette, residues 1282-2136; The His10 tag is named only for the peptide SPOT array; also called His10-BRR2^CC
T1 sequence (looked up): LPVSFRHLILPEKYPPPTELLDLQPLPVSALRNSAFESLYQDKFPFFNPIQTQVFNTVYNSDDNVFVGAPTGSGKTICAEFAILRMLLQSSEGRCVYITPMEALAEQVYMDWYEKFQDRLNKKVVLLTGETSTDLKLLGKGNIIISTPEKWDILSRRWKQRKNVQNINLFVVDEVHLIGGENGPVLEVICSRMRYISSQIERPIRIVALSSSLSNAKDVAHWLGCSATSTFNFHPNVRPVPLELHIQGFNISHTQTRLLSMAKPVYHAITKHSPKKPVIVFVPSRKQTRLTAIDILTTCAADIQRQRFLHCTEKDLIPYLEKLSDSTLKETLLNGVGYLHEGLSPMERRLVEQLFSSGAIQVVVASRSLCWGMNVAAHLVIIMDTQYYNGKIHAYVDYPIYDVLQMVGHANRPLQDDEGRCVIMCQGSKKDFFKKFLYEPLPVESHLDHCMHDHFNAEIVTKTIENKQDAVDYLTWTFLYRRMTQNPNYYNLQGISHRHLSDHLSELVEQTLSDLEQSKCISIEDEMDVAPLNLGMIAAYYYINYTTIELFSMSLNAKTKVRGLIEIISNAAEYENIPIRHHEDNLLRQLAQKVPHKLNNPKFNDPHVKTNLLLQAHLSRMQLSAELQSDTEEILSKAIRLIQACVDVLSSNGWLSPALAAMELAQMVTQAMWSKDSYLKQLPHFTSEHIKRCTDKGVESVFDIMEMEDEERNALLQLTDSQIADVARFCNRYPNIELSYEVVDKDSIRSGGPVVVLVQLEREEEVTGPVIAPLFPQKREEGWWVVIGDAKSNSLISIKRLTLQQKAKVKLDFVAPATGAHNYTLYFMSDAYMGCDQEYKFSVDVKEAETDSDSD

B1: FBP21^200-376 (domain or fragment, human, UniProt O75554 200-376, looked up)
chain: HTSDLPSSKVNENSLGTLDESKSSDSHSDSDGEQEAEEGGVSTETEKPKIKFKEKNKNSDGGSDPETQKEKSIQKQNSLGSNEEKSKTLKKSNPYGEWQEIKQEVESHEEVDLELPSTENEYVSTSEADGGGEPKVVFKEKTVTSLGVMADGVAPVFKKRRTENGKSRNLRQRGDDQ
B2: FBP21^116-376 (domain or fragment, human, UniProt O75554 116-376, looked up)
chain: KKKRKKDPSKGRWVEGITSEGYHYYYDLISGASQWEKPEGFQGDLKKTAVKTVWVEGLSEDGFTYYYNTETGESRWEKPDDFIPHTSDLPSSKVNENSLGTLDESKSSDSHSDSDGEQEAEEGGVSTETEKPKIKFKEKNKNSDGGSDPETQKEKSIQKQNSLGSNEEKSKTLKKSNPYGEWQEIKQEVESHEEVDLELPSTENEYVSTSEADGGGEPKVVFKEKTVTSLGVMADGVAPVFKKRRTENGKSRNLRQRGDDQ
B3: His6-GST-C9ORF78 (natural protein, human)
chain: MPVVRKIFRRRRGDSESEEDEQDSEEVRLKLEETREVQNLRKRPNGVSAVALLVGEKVQEETTLVDDPFQMKTGGMVDMKKLKERGKDKISEEEDLHLGTSFSAETNRRDEDADMMKYIETELKKRKGIVEHEEQKVKPKNAEDCLYELPENIRVSSAKKTEEMLSNQMLSGIPEVDLGIDAKIKNIISTEDAKARLLAEQQNKKKDSETSFVPTNMAVNYVQHNRFYHEELNAPIRRNKEEPKARPLRVGDTEKPEPERSPPNRKRPANEKATDDYHYEKFKKMNRRY
notes: C9ORF78, human, 34 kDa; Tag cleavage led to degradation and was omitted for functional analyses in vitro; also called GST-C9ORF78^wt; source: E. coli BL21 RIL (pETM30), purified (Glutathione Sepharose, SEC); not shown: His6, N-terminal, kept; GST, N-terminal, kept
B4: GST-C9ORF78^F8A (natural protein, human)
chain: MPVVRKIARRRRGDSESEEDEQDSEEVRLKLEETREVQNLRKRPNGVSAVALLVGEKVQEETTLVDDPFQMKTGGMVDMKKLKERGKDKISEEEDLHLGTSFSAETNRRDEDADMMKYIETELKKRKGIVEHEEQKVKPKNAEDCLYELPENIRVSSAKKTEEMLSNQMLSGIPEVDLGIDAKIKNIISTEDAKARLLAEQQNKKKDSETSFVPTNMAVNYVQHNRFYHEELNAPIRRNKEEPKARPLRVGDTEKPEPERSPPNRKRPANEKATDDYHYEKFKKMNRRY
notes: C9ORF78, human, with F8A; source: E. coli BL21 RIL (pETM30), purified (Glutathione Sepharose, SEC); not shown: His6, N-terminal, kept; GST, N-terminal, kept
B5: PRPF8 Jab1 domain (PRPF8^Jab1; residues 2064-2335) (domain or fragment)
chain: not shown
notes: PRPF8, human, Jab1/MPN-like domain, residues 2064-2335; also called Jab1/MPN-like domain
B6: C9ORF78 (His6/GST tag cleaved, co-purified with BRR2^HR) (natural protein, human)
chain: MPVVRKIFRRRRGDSESEEDEQDSEEVRLKLEETREVQNLRKRPNGVSAVALLVGEKVQEETTLVDDPFQMKTGGMVDMKKLKERGKDKISEEEDLHLGTSFSAETNRRDEDADMMKYIETELKKRKGIVEHEEQKVKPKNAEDCLYELPENIRVSSAKKTEEMLSNQMLSGIPEVDLGIDAKIKNIISTEDAKARLLAEQQNKKKDSETSFVPTNMAVNYVQHNRFYHEELNAPIRRNKEEPKARPLRVGDTEKPEPERSPPNRKRPANEKATDDYHYEKFKKMNRRY
notes: C9ORF78, human; the four N-terminal and 231 C-terminal residues not located in the map; 4 + 54 + 231 residues add up to 289, the length that I recall for the whole protein; not shown: His6, N-terminal, cleaved; GST, N-terminal, cleaved

Columns and labels:
Settings in all cases: both partners purified
[1] = biological target: T2, BRR2 helicase region (BRR2^HR, residues 395-2129) (human, UniProt O75643 395-2129); test: cryo-EM structure; complexes purified by SEC, 20 mM Tris-HCl pH 8.0, 150 mM NaCl, 1 mM DTT, 5 mg/ml, 0.15% n-octylglucoside; Titan Krios 300 kV
T2 construct: For the cryoEM complex with C9ORF78 the co-purified proteins were treated with TEV protease and recycled on Ni-NTA; also called His10-BRR2^HR; source: insect cells
T2 sequence (O75643 395-2129): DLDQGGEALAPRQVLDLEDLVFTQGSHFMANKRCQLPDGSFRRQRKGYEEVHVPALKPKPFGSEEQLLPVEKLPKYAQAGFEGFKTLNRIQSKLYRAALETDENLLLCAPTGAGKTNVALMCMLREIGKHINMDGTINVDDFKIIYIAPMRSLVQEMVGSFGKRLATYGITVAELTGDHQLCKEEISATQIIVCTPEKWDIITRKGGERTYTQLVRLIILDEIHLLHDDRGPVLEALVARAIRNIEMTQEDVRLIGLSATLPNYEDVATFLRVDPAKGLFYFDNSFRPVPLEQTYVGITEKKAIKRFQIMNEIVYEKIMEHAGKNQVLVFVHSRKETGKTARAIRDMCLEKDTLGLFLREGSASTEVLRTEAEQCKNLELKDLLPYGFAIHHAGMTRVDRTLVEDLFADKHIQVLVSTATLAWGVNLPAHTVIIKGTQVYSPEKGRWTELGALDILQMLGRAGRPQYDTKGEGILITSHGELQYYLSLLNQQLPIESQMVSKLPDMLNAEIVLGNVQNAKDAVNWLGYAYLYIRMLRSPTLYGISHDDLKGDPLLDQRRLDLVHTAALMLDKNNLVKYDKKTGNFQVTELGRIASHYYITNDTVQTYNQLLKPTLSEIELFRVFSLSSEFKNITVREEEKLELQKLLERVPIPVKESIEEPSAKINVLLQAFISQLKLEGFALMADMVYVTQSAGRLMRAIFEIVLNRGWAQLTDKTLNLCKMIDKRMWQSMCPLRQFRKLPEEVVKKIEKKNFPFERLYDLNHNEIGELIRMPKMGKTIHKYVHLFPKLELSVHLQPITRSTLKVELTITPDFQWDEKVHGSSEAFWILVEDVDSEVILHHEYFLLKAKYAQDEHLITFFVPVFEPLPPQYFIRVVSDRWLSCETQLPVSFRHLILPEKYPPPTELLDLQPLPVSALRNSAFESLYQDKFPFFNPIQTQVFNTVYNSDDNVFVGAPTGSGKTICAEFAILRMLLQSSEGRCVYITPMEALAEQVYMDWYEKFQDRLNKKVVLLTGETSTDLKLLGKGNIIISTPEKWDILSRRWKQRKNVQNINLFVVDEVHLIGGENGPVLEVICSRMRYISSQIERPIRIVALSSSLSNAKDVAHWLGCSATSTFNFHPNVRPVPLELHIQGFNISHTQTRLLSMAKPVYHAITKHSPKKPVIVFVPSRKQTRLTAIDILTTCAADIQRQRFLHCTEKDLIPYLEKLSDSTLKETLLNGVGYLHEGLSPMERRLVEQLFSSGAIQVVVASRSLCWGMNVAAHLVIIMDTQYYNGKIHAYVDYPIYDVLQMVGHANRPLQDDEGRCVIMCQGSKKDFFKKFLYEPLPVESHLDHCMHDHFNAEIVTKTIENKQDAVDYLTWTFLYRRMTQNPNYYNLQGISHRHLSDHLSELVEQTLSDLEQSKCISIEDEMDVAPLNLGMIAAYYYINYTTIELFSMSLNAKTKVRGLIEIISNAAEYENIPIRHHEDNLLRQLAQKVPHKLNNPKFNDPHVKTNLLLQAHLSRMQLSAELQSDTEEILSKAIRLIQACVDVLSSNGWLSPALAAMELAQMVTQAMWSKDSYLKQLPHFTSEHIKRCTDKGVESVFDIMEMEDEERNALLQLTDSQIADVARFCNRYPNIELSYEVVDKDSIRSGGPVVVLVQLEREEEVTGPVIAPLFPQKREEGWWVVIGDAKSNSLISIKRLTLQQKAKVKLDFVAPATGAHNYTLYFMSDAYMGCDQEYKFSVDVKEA

[2] = biological target: T3, BRR2^HR-PRPF8^Jab1 complex (human, UniProt O75643 395-2129; Q6P2Q9 2064-2335); test: SEC; competition: BRR2^HR with equimolar PRPF8^Jab1 and FBP21^116-376 10 min on ice, then with or without equimolar GST-C9ORF78 for 10 min; analytical SEC as above
T3 construct: PRPF8, human, Jab1/MPN-like domain, residues 2064-2335; source: purified BRR2^HR and PRPF8^Jab1 mixed in equimolar amounts

[3] = biological target: T1, BRR2 C-terminal cassette (BRR2^CC, …); test: SEC; analytical SEC, Superdex 200 increase 3.2/300, 20 mM Tris-HCl pH 8.0, 200 mM NaCl, 1 mM DTT; 75 ug BRR2 construct or PRPF8^Jab1 with 1.5-fold molar excess of partner, pre-incubated 10 min on ice; fractions by SDS-PAGE
[4] = biological target: T2, BRR2 helicase region (BRR2^HR, residues …); test: as above
[5] = biological target: T4, full-length BRR2 (BRR2^FL) (human, UniProt O75643 1-2136); test: as above
T4 construct: BRR2 (SNRNP200), human, full length; The His10 tag is named only for the peptide SPOT array; also called His10-BRR2^FL; SNRNP200

Binder	binding result [1]	binding result [2]	binding result [4]	also measured
B1	binds	–	–	–
B2	–	binds	–	–
B3	–	binds	binds	binding result [3]: binds; binding result [5]: binds
B4	–	–	binds	–
B5	–	–	binds	–
B6	binds	–	–	–
